Source: patent US20230072640A1 (published 2023)

Target: recombinant YFV E protein (Meridian Life Science) (Yellow fever virus, UniProt P03314 286-679)
Test: ELISA

recombinant YFV E protein (Meridian Life Science), sequence (P03314 286-679): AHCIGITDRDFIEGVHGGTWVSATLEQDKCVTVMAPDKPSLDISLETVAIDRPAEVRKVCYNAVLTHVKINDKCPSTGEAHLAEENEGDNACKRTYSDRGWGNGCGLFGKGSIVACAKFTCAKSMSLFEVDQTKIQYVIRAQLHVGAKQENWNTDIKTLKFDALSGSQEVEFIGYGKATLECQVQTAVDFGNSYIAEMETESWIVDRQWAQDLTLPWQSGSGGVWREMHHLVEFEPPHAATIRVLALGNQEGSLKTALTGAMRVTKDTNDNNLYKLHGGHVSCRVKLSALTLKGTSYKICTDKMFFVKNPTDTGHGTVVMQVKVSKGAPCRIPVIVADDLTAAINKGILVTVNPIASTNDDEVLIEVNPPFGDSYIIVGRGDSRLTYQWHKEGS

B1: human monoclonal antibody YFV-121 (antibody, V domains shown)
VH: EVQLVESGGGLVQPGGSLRLSCAASGFTFSSYSMNWVRQAPGKGLEWVSYISSSSRTIYYADSVKGRFTISRDNAKNSLDLQMNSLRDEDTAVYYCAREVSSHGYRYWGQGTLVTVSS
VL: EIVLTQSPATLSLSPGERATLSCRASQSVSSFLAWYQQKPGQAPRLLIYDASNRATGIPARFTGSGSGTDFTLTISSLEPEDFAVYYCQQRSNWPPWTFGQGTKVEIK
B1 gave an EC50 of 0.311 µg/mL.

B2: human monoclonal antibody YFV-136 (antibody, V domains shown)
VH: QVQLQESGPGLVKPSGTLSLTCAVSGGSISSSNWWSWVRQPPGKGLEWIGDIYHSGSTSYNPSLKSRVTISVDRSKNQFSLKLSSVTAADTAVYYCARAPLVNWYYFDYWGQGTLVTVSS
VL: QSVLTQPPSVSAAPGQKVTISCSGSSSNIGNNYVSWYQQLPGTAPKLLIYDNNKGPSGIPDRFSGSKSGTSATLGITGLQTGDEADYYCGTWDTSLSAGRVFGGGTKLTVL
Work on B2 yielded an EC50 of 0.27 µg/mL.
